Test results published in PMC11162469, “Discovery of RXFP2 genetic association in resistant hypertensive men and RXFP2 antagonists for the treatment of resistant hypertension” (Scientific Reports, 2024).
Residue numbers refer to the chain shown, from its start. Bridge positions count the residues as written; N and C are the ends. Ends that are not written are not given here. I, II: the chains in the order shown.

B1: RXFP2 mAb 1F2 (antibody, V domains shown)
VH: QVQLKQSGPGLVQPSQSLSITCTVSGFSLTAYGVNWVRQSPGKGLEWLGVIWSGGNTDYNAPFISRLSITKDNSKSQVFFKMNSLEADDTAIYYCARAKGYYAMDYWGQGTSVTVSS
VL: DIQMTQSPASLSVSVGESVTITCRATENIYSNLVWYQQKQGQSPQLLVYAVTSLADGVPSRFSGSGSGTQYSLKINSLQSEDFGTYYCQHFWGTPYTFGGGTKLEIK
B2: RXFP2 mAb 4B8 (antibody, V domains shown)
VH: QVQLKQSGPGLVQPSQSLSITCTVSGFSLSRYGVHWVRQSPGKGLEWLGVIWSGGSTEYNAVFKSRLSISKDNSKSQVFFKMNSLQANDTAIYYCVRADGYYAMEYWGQGTSVTVSS
VL: B1 VL with S18T, T26S, V34A, Q42K, S53N, T85N
B3: RXFP2 mAb 2D4 (antibody, V domains shown)
VH: QVQLKESGPGLVAPSQSLSITCTVSGFSLTTYGISWVRQPPGKGLEWLGVIWTGGGTNYNSALKSRLSISKDNSKSQVFLKMNSLQTDDTARYYCARTEGYYVMDYWGQGTSVTVSS
VL: B1 VL with S18T, T26S, Q42K, V51A, S53N, S77N, T94P, Y96W
B4: RXFP2 mAb 3F1 (antibody, V domains shown)
VH: QVQLKESGPGLVAPSQSLSITCTVSGFSLTDYGVSWIRQPPGKGLEWLGVIWGGGSTDYNPALKSRLSISKDNSKSQVFLKMNSLQADDTAMYYCVKHEGYYAMDYWGQGTSVTVSS
VL: B1 VL with S18T, T26S, V34A, Q42K, Q45H, S53N, T85S
B5: RXFP2 mAb 4F6 (antibody, V domains shown)
VH: EVQLQQSGPELVKPGASVKMSCKASGYTFTNYVLHWVKQKPGQGLEWIGYINPYNDGSKYNEKFKGRATLTSDKSSSTAYMELSSLTSEDSAVYYCARGGWLLDYFDYWGQGTTLTVSS
VL: DVLMTQSPLSLPVSLGEQASISCRSSQSIVHSDGDTYLEWYLQKPGQSPNLLIYKVSNRFSGVPDRFSGSGSGTDFTLKISRVEAEDLGVYYCFQGSHVPPTFGGGTKLEIK
B6: RXFP2 mAb 4G6 (antibody, V domains shown)
VH: EVQLQQSGPELVKPGASVKLSCKASGYTFTSYVMHWVKQKPEQGLEWIGYKNPSNDGIKYNEKFKGKATLTSDKSSNIAYMELFSLTSEDSAVYYCARSDFGSVWAMDYWGQGTSVTVSS
VL: SIVMTQTPKFLLVSAGDRVTITCKASQSVNDDIVWYQQKPGQSPKLLIYYASNRYTGVPDRFTGSGYGTDFTFTISTVQAGDLAVYFCQQDYSSPFTFGSGTKLEIK
B7: RXFP2 mAb 4H1 (antibody, V domains shown)
VH: QIQLVQSGPELKKPGETVKISCKTSGYTFTKYPMHWVKQAPGEGLKWMGWINTYSGLPTFADDFKGRFAFSLETSANTADLQINNLKNEDMATYFCAREGKKLSGYFDYWGQGTTLTVSS
VL: DIKMTQSPSSMYASLGERVTITCKASQDINSYLTWFQQKPGQSPKTLIYRANRFVDGVPSRFSGSGSGQDYSLTITSLEYEDMGIYYCLQYDEFPYTFGGGTQLEIK
B8: RXFP2 mAb 3F3 (antibody, V domains shown)
VH: QVQLQQPGSVLVRPGASVKLSCKASGYIFTSYWMHWVKQRPGQGLEWIGEIYPNSGRTSYNEKFKGKATVTVDTSSSTAYVDLSSLTSEDSAVYYCASGGHWFAYWGQGTLVTVSA
VL: DIQMTQSSSSFSVSLGDRVTITCKASEDIYNRLAWYQQKPGNAPRLLISGATSLEAGVPSRFSGSGSGKDYTLSITSLQTEDVSTYYCQQYWITPYTFGGGTKLEIK
B9: RXFP2 mAb 4A5 (antibody, V domains shown)
VH: DVQLVESGGGLVQPGGSRKLSCAASGFTFSTFGMHWVRQAPEKGLEWVAYISSGSSTIYYADTVKGRFTISRDNPKNTLFLQMTSLRSDDTAMYYCSRSYYGSAHYFDYWGQGTTLTVSS
VL: DIQMTQSPASLSVSVGETVTITCRASENIYSNLAWYQQKQGKSPQLLVYVATNLADGVPSRFSGSGSGTQYSLRINNLQSEDFGNYYCQHFWGTPPTFGGGTKLEIK
B10: RXFP2 mAb 3G4 (antibody, V domains shown)
VH: QVQLKESGPGLVAPSQSLSITCTVSGFSLTSYGVSWVRQPPGKGLEWLGVIWGDGSTNYHSALISRLSISKDNSKSQVFLKLNSLQTDDTATYYCAKSLGYYAMDYWGQGTSVTVSS
VL: B9 VL with A34V, V50A, D56E, R74K, N77S, N85S, T94P, P96W
B11: RXFP2 mAb 3H1 (antibody, V domains shown)
VH: QVQLKETGPGLVAPSQSLSITCTVSGFSLTNYGVNWVRQPPGKGLEWLVVIWSDGSTNYNSALKSRLSISKDNSKSQVFLKMNSLQTDDTAMYYCARQQGYYAMDYWGQGTSVIVSS
VL: B1 VL with S18T, T26S, V34A, Q42K, S53N, T85S, T94P
B12: RXFP2 mAb 4H2 (antibody, V domains shown)
VH: QVQLRQSGPSLVQPSQSLSITCTVSGFSLTNYGVHWVRQSPGKGLEWLGVIWRGGNTDHNAAFMSRLSITKDNSESQVFFKMNSLQVDDTAIYYCAKAEGYYALDYWGQGTSVTVYS
VL: B9 VL with V50A, A51V, R74K, N77S, N85S, P96W
B13: RXFP2 mAb 4H5 (antibody, V domains shown)
VH: QVQLKQSGPGLVQPSQSLSITCTVSGFSLTNYGVHWVRQSPGKGLEWLGVIWRDGNTDYNAAFMSRLSITKDNSKSQVFFEMNSLQVDDTAIYYCCRGDGYYAMGYWGQGTSVTVSS
VL: B9 VL with K39R, K42R, V50A, R74K, N77S, T94S, P96R
B14: RXFP2 mAb 1G1 (antibody, V domains shown)
VH: EVQLQQSGPELVKPGASVKMSCKASGYTFTDYNMHWVKQKPGQGLEWIGYINPYNDGTEYNEKFKGKATLTSDKSSSTAYMDLSSLTSEDSAVYYCARGLWFAMNYWGQGTSVTVSS
VL: B8 VL with A43T, S53I, A56T, T76I, S84A, T94I, Y96P
B15: Rat INSL3 (ligand)
chain 1: SVATNAVHRCCLTGCTQQDLLGLCPH
chain 2: LRSPQPPEARAKLCGHHLVRALVRVCGGPRWSPEA
modifications: disulfide I:10-I:15, I:11-II:14, I:24-II:26
B16: rat LDLa-linker protein (ratRXFP2-LDLa-linker(20-88)) (domain or fragment)
chain: GSNMVAPLCPKGYFPCGNLTKCLPRAFHCDGVDDCGNGADEDNCGDTSGWTTIFGTVHGNVNKVTLTEE

target: human relaxin family peptide receptor 2 (RXFP2) (human) (UniProt Q8WXD0); experiment: not given
Sequence (Q8WXD0 whole entry): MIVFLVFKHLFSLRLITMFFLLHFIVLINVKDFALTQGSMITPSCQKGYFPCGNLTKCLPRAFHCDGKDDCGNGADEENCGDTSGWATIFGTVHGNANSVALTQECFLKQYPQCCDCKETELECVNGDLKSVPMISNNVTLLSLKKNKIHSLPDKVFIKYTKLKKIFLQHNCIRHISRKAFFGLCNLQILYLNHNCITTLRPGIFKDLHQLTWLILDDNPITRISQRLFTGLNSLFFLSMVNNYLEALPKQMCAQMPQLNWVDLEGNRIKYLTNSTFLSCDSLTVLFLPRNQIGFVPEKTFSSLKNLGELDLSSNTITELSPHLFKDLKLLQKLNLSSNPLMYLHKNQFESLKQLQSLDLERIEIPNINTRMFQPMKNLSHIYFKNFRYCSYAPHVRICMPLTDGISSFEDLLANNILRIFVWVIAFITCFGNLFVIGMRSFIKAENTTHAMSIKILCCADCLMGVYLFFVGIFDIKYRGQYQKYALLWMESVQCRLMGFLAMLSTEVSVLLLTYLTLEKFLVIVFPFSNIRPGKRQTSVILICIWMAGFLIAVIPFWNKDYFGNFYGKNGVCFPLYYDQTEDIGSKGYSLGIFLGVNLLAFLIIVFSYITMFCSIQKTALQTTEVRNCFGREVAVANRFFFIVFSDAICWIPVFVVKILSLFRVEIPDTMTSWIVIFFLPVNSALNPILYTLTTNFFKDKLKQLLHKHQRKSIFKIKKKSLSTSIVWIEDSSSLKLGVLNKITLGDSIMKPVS

Going from B1 to B2, the IC50, INSL3 (EC80)-stimulated cAMP in HEK293 stably expressing human RXFP2 falls from 405 nM to 116 nM (3.5-fold).

Going from B3 to B4, the IC50, INSL3 (EC80)-stimulated cAMP in HEK293 stably expressing human RXFP2 falls from over 1000 nM to 589 nM.

Going from B5 to B6, the IC50, INSL3 (EC80)-stimulated cAMP in HEK293 stably expressing human RXFP2 falls from 354 nM to 15.6 nM (23-fold).

With B7 the IC50, INSL3 (EC80)-stimulated cAMP in HEK293 stably expressing human RXFP2 was 218 nM.

In order of falling % Max Response, INSL3 (EC80)-stimulated cAMP in HEK293 stably expressing human RXFP2:
1. B6  84.5%
2. B5  82.7%

target: rat relaxin family peptide receptor 2 (RXFP2) (rat) (UniProt Q5ECL0); experiment: not given
Sequence (Q5ECL0 entry or part of it): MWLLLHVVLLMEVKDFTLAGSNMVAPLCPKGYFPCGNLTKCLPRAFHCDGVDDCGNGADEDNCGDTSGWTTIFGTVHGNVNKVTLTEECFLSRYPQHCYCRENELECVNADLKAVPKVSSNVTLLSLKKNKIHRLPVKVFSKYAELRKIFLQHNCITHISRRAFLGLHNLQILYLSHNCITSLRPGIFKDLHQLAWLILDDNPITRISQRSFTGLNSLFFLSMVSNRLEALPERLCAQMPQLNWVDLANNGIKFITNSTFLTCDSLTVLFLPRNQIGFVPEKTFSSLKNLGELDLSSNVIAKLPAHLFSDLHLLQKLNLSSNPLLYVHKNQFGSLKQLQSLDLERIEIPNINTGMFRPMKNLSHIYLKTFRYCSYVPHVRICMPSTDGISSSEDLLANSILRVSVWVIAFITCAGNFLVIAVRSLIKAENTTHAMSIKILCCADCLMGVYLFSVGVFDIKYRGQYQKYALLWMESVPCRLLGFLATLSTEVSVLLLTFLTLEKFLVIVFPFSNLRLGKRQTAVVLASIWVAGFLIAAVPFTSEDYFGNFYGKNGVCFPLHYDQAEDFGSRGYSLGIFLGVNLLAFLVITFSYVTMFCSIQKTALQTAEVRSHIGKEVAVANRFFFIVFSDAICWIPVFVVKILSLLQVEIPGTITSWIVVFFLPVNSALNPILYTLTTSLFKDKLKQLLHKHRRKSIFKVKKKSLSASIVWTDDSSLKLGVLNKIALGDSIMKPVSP

In order of rising % Max Response, INSL3 (EC80)-stimulated cAMP in HEK293 stably expressing rat RXFP2:
1. B4  69.7%
2. B7  69.7%
3. B11  71.6%
4. B1  76.1%
5. B8  78.5%
6. B5  80.4%
7. B6  82.5%
8. B10  83.3%
9. B12  85.7%
10. B2  86.6%
11. B3  86.8%
12. B14  87.2%
13. B13  89.2%
14. B9  91%

In order of rising IC50, INSL3 (EC80)-stimulated cAMP in HEK293 stably expressing rat RXFP2:
1. B6  14.1 nM
2. B13  14.2 nM
3. B11  15.8 nM
4. B10  16.1 nM
5. B12  18.9 nM
6. B1  19.1 nM
7. B4  19.9 nM
8. B3  21 nM
9. B2  21.4 nM
10. B9  23.2 nM
11. B14  28 nM
12. B8  37 nM
13. B5  48.5 nM
14. B7  150 nM

In order of falling IC50, INSL3-stimulated CYP11B1 mRNA in H295R stably expressing rat RXFP2:
1. B8  3.85 nM
2. B9  2.85 nM
3. B10  0.33 nM
4. B11  0.33 nM
5. B6  0.33 nM
6. B1  0.32 nM
7. B4  0.27 nM
8. B14  0.27 nM
9. B12  0.26 nM
10. B2  0.23 nM
11. B13  0.21 nM
12. B3  0.14 nM

In order of falling IC50, INSL3-stimulated CYP11B2 mRNA in H295R stably expressing rat RXFP2:
1. B8  0.51 nM
2. B9  0.31 nM
3. B4  0.23 nM
4. B10  0.2 nM
5. B2  0.17 nM
6. B14  0.17 nM
7. B11  0.16 nM
8. B13  0.15 nM
9. B12  0.13 nM
10. B3  0.11 nM
11. B1  0.1 nM
12. B6  0.1 nM

target: rat relaxin family peptide receptor 2 (RXFP2) (rat) (UniProt Q5ECL0); experiment: not given; remark: another data set of the same source

B15 showed an EC50, cortisol secretion (ELISA) from H295R cells stably expressing rat RXFP2 of 0.16 nM.

target: rat relaxin family peptide receptor 2 (RXFP2) (rat) (UniProt Q5ECL0); experiment: not given; remark: another data set of the same source

B15 was tested, and the EC50, aldosterone secretion (ELISA) from H295R cells stably expressing rat RXFP2 was 2.2 nM.

target: rat relaxin family peptide receptor 2 (RXFP2) (rat) (UniProt Q5ECL0); experiment: not given; remark: another data set of the same source

In order of rising IC50, INSL3-induced cortisol release (ELISA) from H295R stably expressing rat RXFP2:
1. B3  0.17 nM
2. B1  0.21 nM
3. B6  0.26 nM

B3 gave an IC50, INSL3-induced aldosterone release (ELISA) from H295R stably expressing rat RXFP2 of 0.05 nM.

target: RXFP2 mAb 2H3 (rat); experiment: SPR; Biacore S200; goat anti-rat Fc gamma immobilised on a Series S CM5 chip, purified recombinant rat anti-RXFP2 antibodies captured at 5 µg/mL; rat or human LDLa-linker protein flowed as analyte at 20, 10, 5, 2.5, 1.75 and 0 nM; 1:1 fit model

B16 gave a Kd of 582 nM.
